Starred links: 1 amine or outer side, 2 acyl side, 3 side chain; linkers in the order of their positions; H or OH if unused. Non-standard residues stand in square brackets, D forms with d. Groups on a side chain read outwards from the residue. No end group written: not given here. *: point of attachment. C20 diacid = O=C(O)CCCCCCCCCCCCCCCCCCC(=O)*; C18 diacid = O=C(O)CCCCCCCCCCCCCCCCC(=O)*; γGlu = O=C(O)[C@H](CCC(=O)[*:2])N[*:1]; εLys = N[C@@H](CCCCN[*:1])C(=O)[*:2]; AEEA = NCCOCCOCC(=O)O; Aib = CC(C)(N)C(=O)O
T1: human GIP receptor (human, UniProt P48546 22-466)
T1 sequence (looked up): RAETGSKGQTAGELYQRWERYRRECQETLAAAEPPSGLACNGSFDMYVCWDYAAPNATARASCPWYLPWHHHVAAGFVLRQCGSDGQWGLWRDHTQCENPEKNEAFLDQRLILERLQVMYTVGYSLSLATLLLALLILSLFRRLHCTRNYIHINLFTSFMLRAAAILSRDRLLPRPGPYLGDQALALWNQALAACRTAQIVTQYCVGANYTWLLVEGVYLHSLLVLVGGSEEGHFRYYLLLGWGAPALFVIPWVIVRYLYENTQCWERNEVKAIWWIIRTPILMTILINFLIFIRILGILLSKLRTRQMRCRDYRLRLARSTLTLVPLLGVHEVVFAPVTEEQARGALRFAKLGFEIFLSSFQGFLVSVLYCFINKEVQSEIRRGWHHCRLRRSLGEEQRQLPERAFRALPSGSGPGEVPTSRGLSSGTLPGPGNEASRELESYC

T2: human neuropeptide Y2 receptor (human, UniProt P49146 1-381)
T2 sequence (looked up): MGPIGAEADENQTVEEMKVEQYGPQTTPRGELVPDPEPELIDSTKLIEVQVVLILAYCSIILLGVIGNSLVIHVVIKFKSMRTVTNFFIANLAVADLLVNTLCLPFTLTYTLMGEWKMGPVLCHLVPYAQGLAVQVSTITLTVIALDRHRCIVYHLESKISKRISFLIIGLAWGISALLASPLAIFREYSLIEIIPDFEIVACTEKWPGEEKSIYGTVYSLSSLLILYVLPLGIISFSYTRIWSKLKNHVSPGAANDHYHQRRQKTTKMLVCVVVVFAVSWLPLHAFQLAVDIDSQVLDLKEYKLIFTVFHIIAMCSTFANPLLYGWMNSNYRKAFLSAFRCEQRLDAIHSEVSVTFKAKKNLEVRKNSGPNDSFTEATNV


Columns and labels:
Assay in all cases: cell-based or functional assay
[1] = biological target: human GLP-1 receptor (human, UniProt P43220 24-463)
[2] = biological target: T1, human GIP receptor
[3] = biological target: T2, human neuropeptide Y2 receptor

Binder | EC50 hGLP1R 0.5% hP (CreLuc) [1] [nM] | EC50 hGLP1R 100% hP (CreLuc) [1] [nM] | EC50 hGIPR 0.5% hP (CreLuc) [2] [nM] | EC50 hGIPR 100% hP (CreLuc) [2] [nM] | EC50 hNPY2R 0.5% hP (CreLuc) [3] [nM] | EC50 hNPY2R 100% hP (CreLuc) [3] [nM]
YXEGTFTSDYSIXLEKQAQXAFVEWLIKGGPSEGASLRHYYNWLTRQRY (Aib at 2, 13, 20; K28 side chain acylated with C18DA-gGlu-gGlu-gGlu-gGlu-gGlu-AHX; C-terminal amide (NH2)) [Compound 304] | 0.35 | 10.3 | 0.23 | 2.35 | 35.7 | 114
YXEGTFTSDYSIXLEKQAQXAFVEWLIKGGPSEGASLRHYYNWLTRQRY (Aib at 2, 13, 20; K28 side chain acylated with C18DA-gGlu-Glu-gGlu-gGlu-gGlu-gGlu-eLys (so in the source); C-terminal amide (NH2)) [Compound 293] | 0.18 | 4.21 | 0.26 | 1.33 | 13.6 | 37.5
YXEGTFTSDYSIXLEKQAQXAFVEWLIKGGPSEGASLRHYYNWLTRQRY (Aib at 2, 13, 20; K28 side chain acylated with C20DA-gGlu-gGlu-gGlu-gGlu-gGlu-AHX; C-terminal amide (NH2)) [Compound 301] | 0.23 | 11.3 | 0.58 | 3.27 | 25.4 | 99.3
Y[Aib]EGTFTSDYSI[Aib]LEKQAQ[Aib]AFVEWLIK([AEEA-AEEA-γGlu-γGlu-γGlu-C18 diacid])GGPSEGASLRHYYNWLTRQRY-NH2 (also: TFA salt) [Compound 299] | 0.08 | 2.97 | 0.4 | 0.71 | 11 | 31.6
Y[Aib]EGTFTSDYSI[Aib]LEKQAQ[Aib]AFVEWLIK([Glu-Glu-Glu-Glu-C18 diacid])GGPSEGASLRHYYNWLTRQRY-NH2 (also: TFA salt) [Compound 291] | 0.1 | 2.35 | 0.18 | 0.7 | 14.3 | 55.3
Y[Aib]EGTFTSDYSI[Aib]LEKQAQ[Aib]AFVEWLIK([γGlu-γGlu-γGlu-γGlu-γGlu-γGlu-C20 diacid])GGPSEGASLRHYYNWLTRQRY-NH2 (also: TFA salt) [Compound 305] | 0.29 | 7.08 | 0.65 | 2.81 | 18.2 | 101
Y[Aib]EGTFTSDYSI[Aib]LEKQAQ[Aib]AFVEWLIK([εLys-γGlu-Glu-γGlu-γGlu-γGlu-C20 diacid])GGPSEGASLRHYYNWLTRQRY-NH2 (also: TFA salt) [Compound 290] | 0.13 | 2.87 | 0.89 | 1.18 | 9.68 | 46.3
Y[Aib]EGTFTSDYSI[Aib]LEKQAQ[Aib]AFVEWLIK([Glu-Glu-Glu-Glu-Glu-Glu-C18 diacid])GGPSEGASLRHYYNWLTRQRY-NH2 (also: TFA salt) [Compound 302] | 0.15 | 6.05 | 0.33 | 3.87 | 31.9 | 173

Reference: patent publication US20240247080A1, “GLP1/GIP/NPY2 RECEPTOR TRIPLE AGONISTS” (Boehringer Ingelheim International GmbH, priority 2022, published 2024)
